# Reference: the supplement of paper PMC9112550, “Optimization of the antimicrobial peptide Bac7 by deep mutational scanning” (BMC Biology, 2022)
# Test system: Escherichia coli TOP10
# Test: shrunken log2 fold change of peptide-encoding DNA abundance (4.5 h post-induction vs induction); higher = less antimicrobial activity (less host growth inhibition)
# Conditions: time post-induction: 4.5 h; library: site-saturation at positions 5, 18, 19, 20
# 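Further: peptides expressed intracellularly from a pBAD plasmid library in pooled LB shake-flask culture, induced with 0.3% L-arabinose, DNA abundance read by NGS, three biological replicates, DESeq2 with apeglm shrinkage.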
row,Sequence,shrunken log2 fold change
1,RRIRNRPPRLPRPRPRPDQFPRP,-0.0466
2,RRIRNRPPRLPRPRPRPDQPPRP,0.00646
3,RRIRNRPPRLPRPRPRPDVEPRP,-0.00443
4,RRIRNRPPRLPRPRPRPDVSPRP,-0.0754
5,RRIRNRPPRLPRPRPRPDWWPRP,0.304
6,RRIRNRPPRLPRPRPRPDYQPRP,-0.165
7,RRIRNRPPRLPRPRPRPDYVPRP,-0.296
8,RRIRNRPPRLPRPRPRPECDPRP,0.203
9,RRIRNRPPRLPRPRPRPECKPRP,0.0615
10,RRIRNRPPRLPRPRPRPEDIPRP,-0.194
11,RRIRNRPPRLPRPRPRPEGHPRP,0.00677
12,RRIRNRPPRLPRPRPRPEGKPRP,-0.0135
13,RRIRNRPPRLPRPRPRPEGVPRP,0.205
14,RRIRNRPPRLPRPRPRPEHWPRP,-0.0343
15,RRIRNRPPRLPRPRPRPEKPPRP,-0.233
16,RRIRNRPPRLPRPRPRPELAPRP,0.0428
17,RRIRNRPPRLPRPRPRPELPPRP,-0.098
18,RRIRNRPPRLPRPRPRPEMFPRP,0.0119
19,RRIRNRPPRLPRPRPRPEPHPRP,0.131
20,RRIRNRPPRLPRPRPRPEQAPRP,0.632
21,RRIRNRPPRLPRPRPRPEQFPRP,-0.0122
22,RRIRNRPPRLPRPRPRPEQWPRP,-0.0114
23,RRIRNRPPRLPRPRPRPERAPRP,0.362
24,RRIRNRPPRLPRPRPRPERWPRP,0.699
25,RRIRNRPPRLPRPRPRPETYPRP,-0.554

row,Sequence,shrunken log2 fold change
1,RRIRNRPPRLPRPRPRPEYHPRP,0.0524
2,RRIRNRPPRLPRPRPRPEYSPRP,-0.272
3,RRIRNRPPRLPRPRPRPFACPRP,0.0153
4,RRIRNRPPRLPRPRPRPFADPRP,0.0675
5,RRIRNRPPRLPRPRPRPFAMPRP,-0.177
6,RRIRNRPPRLPRPRPRPFCMPRP,-0.45
7,RRIRNRPPRLPRPRPRPFCNPRP,-0.126
8,RRIRNRPPRLPRPRPRPFDIPRP,-0.701
9,RRIRNRPPRLPRPRPRPFDPPRP,-0.805
10,RRIRNRPPRLPRPRPRPFFQPRP,-0.427
11,RRIRNRPPRLPRPRPRPFHRPRP,-0.211
12,RRIRNRPPRLPRPRPRPFKSPRP,-0.014
13,RRIRNRPPRLPRPRPRPFLTPRP,-0.505
14,RRIRNRPPRLPRPRPRPFMKPRP,-0.0163
15,RRIRNRPPRLPRPRPRPFMPPRP,-0.209
16,RRIRNRPPRLPRPRPRPFPNPRP,-0.33
17,RRIRNRPPRLPRPRPRPFPRPRP,0.0857
18,RRIRNRPPRLPRPRPRPFQEPRP,-0.0276
19,RRIRNRPPRLPRPRPRPFQFPRP,-0.0984
20,RRIRNRPPRLPRPRPRPFRMPRP,0.00572
21,RRIRNRPPRLPRPRPRPFSFPRP,-0.186
22,RRIRNRPPRLPRPRPRPFSGPRP,-0.277
23,RRIRNRPPRLPRPRPRPFSLPRP,-0.0274
24,RRIRNRPPRLPRPRPRPFTIPRP,-0.28
25,RRIRNRPPRLPRPRPRPFTKPRP,-0.0763

row,Sequence,shrunken log2 fold change
1,RRIRNRPPRLPRPRPRPFTVPRP,-0.00101
2,RRIRNRPPRLPRPRPRPFVLPRP,-0.451
3,RRIRNRPPRLPRPRPRPFVYPRP,-0.0264
4,RRIRNRPPRLPRPRPRPFWTPRP,-0.132
5,RRIRNRPPRLPRPRPRPFYCPRP,-0.937
6,RRIRNRPPRLPRPRPRPFYEPRP,-0.233
7,RRIRNRPPRLPRPRPRPGALPRP,0.0726
8,RRIRNRPPRLPRPRPRPGCHPRP,-0.318
9,RRIRNRPPRLPRPRPRPGCIPRP,-0.173
10,RRIRNRPPRLPRPRPRPGCYPRP,-0.24
11,RRIRNRPPRLPRPRPRPGDFPRP,0.264
12,RRIRNRPPRLPRPRPRPGDKPRP,-0.105
13,RRIRNRPPRLPRPRPRPGDVPRP,-0.0732
14,RRIRNRPPRLPRPRPRPGEGPRP,0.196
15,RRIRNRPPRLPRPRPRPGGQPRP,0.0599
16,RRIRNRPPRLPRPRPRPGHWPRP,0.291
17,RRIRNRPPRLPRPRPRPGIQPRP,0.00115
18,RRIRNRPPRLPRPRPRPGISPRP,0.0154
19,RRIRNRPPRLPRPRPRPGKIPRP,-0.284
20,RRIRNRPPRLPRPRPRPGKNPRP,0.0906
21,RRIRNRPPRLPRPRPRPGLCPRP,0.685
22,RRIRNRPPRLPRPRPRPGLHPRP,-0.0523
23,RRIRNRPPRLPRPRPRPGNPPRP,0.0273
24,RRIRNRPPRLPRPRPRPGPCPRP,-0.0814
25,RRIRNRPPRLPRPRPRPGPPPRP,0.581

row,Sequence,shrunken log2 fold change
1,RRIRNRPPRLPRPRPRPGQQPRP,-0.0199
2,RRIRNRPPRLPRPRPRPGTCPRP,-0.0314
3,RRIRNRPPRLPRPRPRPGVLPRP,0.222
4,RRIRNRPPRLPRPRPRPGVRPRP,0.212
5,RRIRNRPPRLPRPRPRPGWKPRP,-0.00965
6,RRIRNRPPRLPRPRPRPGWVPRP,0.282
7,RRIRNRPPRLPRPRPRPGYLPRP,0.114
8,RRIRNRPPRLPRPRPRPHADPRP,-0.315
9,RRIRNRPPRLPRPRPRPHAGPRP,0.00938
10,RRIRNRPPRLPRPRPRPHAPPRP,0.0879
11,RRIRNRPPRLPRPRPRPHCSPRP,-0.095
12,RRIRNRPPRLPRPRPRPHCTPRP,-0.0475
13,RRIRNRPPRLPRPRPRPHFCPRP,-0.144
14,RRIRNRPPRLPRPRPRPHFNPRP,-0.608
15,RRIRNRPPRLPRPRPRPHFQPRP,0.0313
16,RRIRNRPPRLPRPRPRPHGKPRP,0.0681
17,RRIRNRPPRLPRPRPRPHGNPRP,-0.189
18,RRIRNRPPRLPRPRPRPHHIPRP,-0.282
19,RRIRNRPPRLPRPRPRPHHMPRP,-1.41
20,RRIRNRPPRLPRPRPRPHIKPRP,-0.595
21,RRIRNRPPRLPRPRPRPHLKPRP,-0.875
22,RRIRNRPPRLPRPRPRPHLRPRP,-0.447
23,RRIRNRPPRLPRPRPRPHMKPRP,-0.243
24,RRIRNRPPRLPRPRPRPHMQPRP,-0.304
25,RRIRNRPPRLPRPRPRPHQFPRP,-0.000243

row,Sequence,shrunken log2 fold change
1,RRIRNRPPRLPRPRPRPHQVPRP,0.0294
2,RRIRNRPPRLPRPRPRPHQWPRP,-0.0998
3,RRIRNRPPRLPRPRPRPHRDPRP,-0.0417
4,RRIRNRPPRLPRPRPRPHSFPRP,-0.258
5,RRIRNRPPRLPRPRPRPHSRPRP,-0.0742
6,RRIRNRPPRLPRPRPRPHTIPRP,-0.106
7,RRIRNRPPRLPRPRPRPHVQPRP,-0.0883
8,RRIRNRPPRLPRPRPRPHVWPRP,0.0415
9,RRIRNRPPRLPRPRPRPHWDPRP,-0.136
10,RRIRNRPPRLPRPRPRPHWNPRP,-1.01
11,RRIRNRPPRLPRPRPRPIAGPRP,-0.0235
12,RRIRNRPPRLPRPRPRPICTPRP,-0.122
13,RRIRNRPPRLPRPRPRPIEDPRP,-0.0858
14,RRIRNRPPRLPRPRPRPIEPPRP,-0.00208
15,RRIRNRPPRLPRPRPRPIFCPRP,-0.0368
16,RRIRNRPPRLPRPRPRPIFIPRP,-0.44
17,RRIRNRPPRLPRPRPRPIFVPRP,-0.0459
18,RRIRNRPPRLPRPRPRPIFWPRP,-0.162
19,RRIRNRPPRLPRPRPRPIFYPRP,0.00954
20,RRIRNRPPRLPRPRPRPIGNPRP,0.0106
21,RRIRNRPPRLPRPRPRPIHCPRP,-0.244
22,RRIRNRPPRLPRPRPRPIHDPRP,0.177
23,RRIRNRPPRLPRPRPRPIHKPRP,-0.377
24,RRIRNRPPRLPRPRPRPIIKPRP,-0.463
25,RRIRNRPPRLPRPRPRPIILPRP,-0.234

row,Sequence,shrunken log2 fold change
1,RRIRNRPPRLPRPRPRPIIVPRP,-0.286
2,RRIRNRPPRLPRPRPRPIKDPRP,-0.4
3,RRIRNRPPRLPRPRPRPIMGPRP,-0.0169
4,RRIRNRPPRLPRPRPRPINCPRP,0.00363
5,RRIRNRPPRLPRPRPRPIPAPRP,-0.0451
6,RRIRNRPPRLPRPRPRPIPEPRP,-0.147
7,RRIRNRPPRLPRPRPRPIQHPRP,-0.0743
8,RRIRNRPPRLPRPRPRPIQVPRP,-0.0304
9,RRIRNRPPRLPRPRPRPISAPRP,-0.0545
10,RRIRNRPPRLPRPRPRPISTPRP,-0.507
11,RRIRNRPPRLPRPRPRPIVRPRP,0.0133
12,RRIRNRPPRLPRPRPRPIWEPRP,-0.131
13,RRIRNRPPRLPRPRPRPIWRPRP,0.00377
14,RRIRNRPPRLPRPRPRPIYCPRP,-0.858
15,RRIRNRPPRLPRPRPRPIYMPRP,-0.473
16,RRIRNRPPRLPRPRPRPKATPRP,-0.0881
17,RRIRNRPPRLPRPRPRPKDSPRP,-0.0312
18,RRIRNRPPRLPRPRPRPKEAPRP,-0.00208
19,RRIRNRPPRLPRPRPRPKFKPRP,-0.508
20,RRIRNRPPRLPRPRPRPKGDPRP,0.0687
21,RRIRNRPPRLPRPRPRPKGEPRP,-0.00804
22,RRIRNRPPRLPRPRPRPKHCPRP,-0.111
23,RRIRNRPPRLPRPRPRPKHDPRP,-0.287
24,RRIRNRPPRLPRPRPRPKHTPRP,-0.0718
25,RRIRNRPPRLPRPRPRPKICPRP,-0.262
